From the supplement of paper PMC10065799, “High-throughput profiling of sequence recognition by tyrosine kinases and SH2 domains using bacterial peptide display” (eLife, 2023)

Tests used:
[1] = molecular target: SHP2-C SH2; assay: SH2 binding enrichment of the phosphorylated peptide, bacterial display (enrichment ratio); higher = better substrate or ligand; peptides without Tyr show the background
[2] = molecular target: c-Src SH2; assay: as above
[3] = molecular target: Grb2 SH2 (UniProt P62993); assay: as above
[4] = molecular target: EPHB1 (UniProt P54762); assay: phosphorylation enrichment, bacterial display (enrichment ratio); higher = better substrate or ligand; peptides without Tyr show the background
Sequence of EPHB1 (P54762 whole entry, looked up): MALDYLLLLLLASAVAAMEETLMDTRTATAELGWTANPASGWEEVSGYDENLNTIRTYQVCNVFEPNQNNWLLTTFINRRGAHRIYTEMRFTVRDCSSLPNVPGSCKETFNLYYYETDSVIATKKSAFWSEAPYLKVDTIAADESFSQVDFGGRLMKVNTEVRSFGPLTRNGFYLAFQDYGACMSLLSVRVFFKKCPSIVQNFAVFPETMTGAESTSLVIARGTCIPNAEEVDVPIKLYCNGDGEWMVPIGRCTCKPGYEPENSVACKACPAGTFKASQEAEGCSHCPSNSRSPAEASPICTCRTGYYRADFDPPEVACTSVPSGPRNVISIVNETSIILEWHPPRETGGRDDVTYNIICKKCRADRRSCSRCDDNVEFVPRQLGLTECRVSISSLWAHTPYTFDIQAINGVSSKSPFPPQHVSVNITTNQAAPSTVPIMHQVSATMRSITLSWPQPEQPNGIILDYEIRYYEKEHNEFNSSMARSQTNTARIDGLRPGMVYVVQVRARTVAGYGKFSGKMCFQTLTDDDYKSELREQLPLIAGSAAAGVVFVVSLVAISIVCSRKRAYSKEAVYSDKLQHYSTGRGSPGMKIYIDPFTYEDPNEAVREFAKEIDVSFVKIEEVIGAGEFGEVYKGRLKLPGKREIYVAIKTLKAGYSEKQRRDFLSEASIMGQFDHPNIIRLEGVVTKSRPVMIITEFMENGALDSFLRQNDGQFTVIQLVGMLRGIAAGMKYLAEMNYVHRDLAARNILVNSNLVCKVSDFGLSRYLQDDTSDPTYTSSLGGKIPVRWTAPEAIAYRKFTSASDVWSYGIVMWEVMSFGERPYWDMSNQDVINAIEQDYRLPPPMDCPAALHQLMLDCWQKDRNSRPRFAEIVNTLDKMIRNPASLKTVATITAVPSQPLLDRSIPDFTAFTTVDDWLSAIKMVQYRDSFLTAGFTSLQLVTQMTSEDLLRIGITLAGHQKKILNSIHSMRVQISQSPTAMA

[5] = molecular target: MERTK (UniProt Q12866); assay: as above
Sequence of MERTK (Q12866 whole entry, looked up): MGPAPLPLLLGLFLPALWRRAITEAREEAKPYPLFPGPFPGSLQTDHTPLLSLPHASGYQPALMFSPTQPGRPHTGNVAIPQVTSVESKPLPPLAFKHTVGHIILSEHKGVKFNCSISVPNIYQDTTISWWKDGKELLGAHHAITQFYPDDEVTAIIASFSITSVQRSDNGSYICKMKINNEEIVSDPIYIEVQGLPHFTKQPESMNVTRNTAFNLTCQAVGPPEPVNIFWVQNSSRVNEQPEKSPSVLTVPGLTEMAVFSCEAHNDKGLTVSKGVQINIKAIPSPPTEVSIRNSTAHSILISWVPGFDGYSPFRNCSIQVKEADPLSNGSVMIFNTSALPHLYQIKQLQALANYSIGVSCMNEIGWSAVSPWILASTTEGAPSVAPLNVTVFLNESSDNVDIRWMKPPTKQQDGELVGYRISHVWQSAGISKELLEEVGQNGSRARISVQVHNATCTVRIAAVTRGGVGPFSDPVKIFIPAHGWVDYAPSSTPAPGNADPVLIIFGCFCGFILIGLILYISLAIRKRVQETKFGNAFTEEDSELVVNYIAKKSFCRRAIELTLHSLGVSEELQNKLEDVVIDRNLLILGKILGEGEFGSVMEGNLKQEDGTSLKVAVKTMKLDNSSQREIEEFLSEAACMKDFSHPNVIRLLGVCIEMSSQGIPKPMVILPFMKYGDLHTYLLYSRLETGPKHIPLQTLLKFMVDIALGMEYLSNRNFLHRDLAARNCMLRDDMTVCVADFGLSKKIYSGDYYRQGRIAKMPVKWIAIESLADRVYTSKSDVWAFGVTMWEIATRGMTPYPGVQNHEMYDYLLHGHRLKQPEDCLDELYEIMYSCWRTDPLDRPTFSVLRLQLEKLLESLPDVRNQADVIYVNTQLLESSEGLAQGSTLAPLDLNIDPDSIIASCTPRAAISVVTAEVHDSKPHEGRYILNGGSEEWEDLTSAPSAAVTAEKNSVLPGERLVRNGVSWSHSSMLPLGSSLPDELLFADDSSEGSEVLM

[6] = molecular target: EPHB2 (UniProt P29323); assay: as above
[7] = test system: Fer (mouse); assay: as above
[8] = molecular target: Fes (UniProt P07332); assay: as above
Sequence of Fes (P07332 whole entry, looked up): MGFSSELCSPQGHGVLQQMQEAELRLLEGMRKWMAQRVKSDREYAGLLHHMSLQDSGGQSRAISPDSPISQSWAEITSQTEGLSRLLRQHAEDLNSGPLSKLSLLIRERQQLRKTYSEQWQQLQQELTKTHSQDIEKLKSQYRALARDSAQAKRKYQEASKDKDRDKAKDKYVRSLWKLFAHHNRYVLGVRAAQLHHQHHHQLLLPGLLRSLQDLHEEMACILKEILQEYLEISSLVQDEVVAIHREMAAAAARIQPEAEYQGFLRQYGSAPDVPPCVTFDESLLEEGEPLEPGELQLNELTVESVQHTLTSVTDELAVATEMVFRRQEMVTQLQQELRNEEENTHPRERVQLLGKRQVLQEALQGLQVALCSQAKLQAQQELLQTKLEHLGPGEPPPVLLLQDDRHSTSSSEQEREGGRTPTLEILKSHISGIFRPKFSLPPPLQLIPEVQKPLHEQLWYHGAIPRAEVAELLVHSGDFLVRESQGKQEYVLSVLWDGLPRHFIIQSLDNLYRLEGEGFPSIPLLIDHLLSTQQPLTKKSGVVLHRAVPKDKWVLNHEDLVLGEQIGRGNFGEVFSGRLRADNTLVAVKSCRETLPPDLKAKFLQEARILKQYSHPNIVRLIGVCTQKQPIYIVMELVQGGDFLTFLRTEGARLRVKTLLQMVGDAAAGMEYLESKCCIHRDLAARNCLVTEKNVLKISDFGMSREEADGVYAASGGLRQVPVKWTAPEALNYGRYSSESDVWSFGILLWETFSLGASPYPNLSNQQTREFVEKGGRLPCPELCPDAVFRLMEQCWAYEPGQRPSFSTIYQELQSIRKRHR

[9] = molecular target: Fyn (UniProt P06241); assay: as above
Sequence of Fyn (P06241 whole entry, looked up): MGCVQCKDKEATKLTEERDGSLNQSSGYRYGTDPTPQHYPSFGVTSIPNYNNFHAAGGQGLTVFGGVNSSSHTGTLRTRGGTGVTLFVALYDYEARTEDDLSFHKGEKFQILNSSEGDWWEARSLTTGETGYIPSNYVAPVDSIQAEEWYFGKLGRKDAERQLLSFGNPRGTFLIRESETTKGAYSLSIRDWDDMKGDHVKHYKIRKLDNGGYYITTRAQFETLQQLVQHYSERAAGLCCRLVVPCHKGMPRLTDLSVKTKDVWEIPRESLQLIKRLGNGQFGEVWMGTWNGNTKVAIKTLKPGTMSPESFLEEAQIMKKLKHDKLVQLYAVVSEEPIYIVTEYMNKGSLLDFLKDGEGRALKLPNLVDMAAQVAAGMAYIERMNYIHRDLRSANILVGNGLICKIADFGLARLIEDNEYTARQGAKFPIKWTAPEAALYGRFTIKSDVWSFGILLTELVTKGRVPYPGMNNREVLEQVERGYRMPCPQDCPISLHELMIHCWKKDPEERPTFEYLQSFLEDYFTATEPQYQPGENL

[10] = molecular target: Jak2 (UniProt O60674); assay: as above
Sequence of Jak2 (O60674 whole entry, looked up): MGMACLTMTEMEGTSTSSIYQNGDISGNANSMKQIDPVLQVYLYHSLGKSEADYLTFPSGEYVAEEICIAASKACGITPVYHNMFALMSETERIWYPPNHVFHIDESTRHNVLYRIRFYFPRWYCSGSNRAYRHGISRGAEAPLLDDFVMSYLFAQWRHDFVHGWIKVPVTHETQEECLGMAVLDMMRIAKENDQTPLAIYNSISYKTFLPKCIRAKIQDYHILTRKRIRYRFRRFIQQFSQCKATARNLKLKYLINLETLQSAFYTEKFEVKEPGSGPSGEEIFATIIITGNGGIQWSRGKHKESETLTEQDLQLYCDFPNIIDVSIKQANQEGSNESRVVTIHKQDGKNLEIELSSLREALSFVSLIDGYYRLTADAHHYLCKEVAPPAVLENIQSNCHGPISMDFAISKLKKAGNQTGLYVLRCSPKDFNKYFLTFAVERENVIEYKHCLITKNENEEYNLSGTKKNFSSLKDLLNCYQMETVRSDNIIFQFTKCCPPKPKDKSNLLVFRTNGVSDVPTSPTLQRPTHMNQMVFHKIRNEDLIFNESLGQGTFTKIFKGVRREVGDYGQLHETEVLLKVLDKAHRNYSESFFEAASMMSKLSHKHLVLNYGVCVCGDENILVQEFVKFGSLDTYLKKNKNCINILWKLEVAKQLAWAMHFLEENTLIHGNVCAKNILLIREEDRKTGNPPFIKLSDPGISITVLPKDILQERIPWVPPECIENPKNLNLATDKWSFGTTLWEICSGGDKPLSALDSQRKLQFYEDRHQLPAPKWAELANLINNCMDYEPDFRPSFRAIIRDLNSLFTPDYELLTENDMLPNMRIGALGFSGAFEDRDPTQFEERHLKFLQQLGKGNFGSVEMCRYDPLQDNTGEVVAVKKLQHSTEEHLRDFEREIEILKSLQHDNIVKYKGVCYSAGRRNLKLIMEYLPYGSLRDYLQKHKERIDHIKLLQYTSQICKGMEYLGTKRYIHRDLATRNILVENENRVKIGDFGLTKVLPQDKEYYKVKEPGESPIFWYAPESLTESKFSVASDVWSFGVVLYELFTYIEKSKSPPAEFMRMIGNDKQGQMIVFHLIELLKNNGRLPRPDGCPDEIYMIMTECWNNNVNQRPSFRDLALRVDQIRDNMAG

[11] = molecular target: FGFR3 (UniProt P22607); assay: as above
[12] = molecular target: FGFR1 (UniProt P11362); assay: as above
[13] = molecular target: Hck (UniProt P08631); assay: as above
Sequence of Hck (P08631 whole entry, looked up): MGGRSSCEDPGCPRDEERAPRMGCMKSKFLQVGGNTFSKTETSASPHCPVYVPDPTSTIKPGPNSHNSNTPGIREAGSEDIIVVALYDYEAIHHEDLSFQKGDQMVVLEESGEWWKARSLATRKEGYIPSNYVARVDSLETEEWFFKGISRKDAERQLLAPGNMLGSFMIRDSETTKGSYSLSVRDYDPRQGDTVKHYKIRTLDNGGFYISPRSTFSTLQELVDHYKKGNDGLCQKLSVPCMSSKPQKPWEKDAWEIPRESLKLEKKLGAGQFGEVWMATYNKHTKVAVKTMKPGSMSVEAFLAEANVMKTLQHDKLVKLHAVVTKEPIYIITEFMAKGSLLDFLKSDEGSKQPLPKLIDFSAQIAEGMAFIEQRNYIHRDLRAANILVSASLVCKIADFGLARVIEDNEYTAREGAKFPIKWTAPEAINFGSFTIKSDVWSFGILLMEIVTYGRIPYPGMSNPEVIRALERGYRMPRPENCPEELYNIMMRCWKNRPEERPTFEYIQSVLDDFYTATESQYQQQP

[14] = test system: c-Abl (mouse); assay: as above
[15] = test system: c-Src; assay: as above
[16] = test system: AncSZ; assay: as above
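For SH2 binding enrichment of the phosphorylated peptide, bacterial display in this document: peptide library displayed on the E. coli surface as eCPX fusions, selected cells deep-sequenced, score is each peptide's frequency after selection divided by its frequency in the input.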
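For phosphorylation enrichment, bacterial display in this document: 11-residue human phosphosite peptides and single-mutation variants displayed on the E. coli surface, counted by deep sequencing, each peptide's frequency after selection divided by its frequency in the unselected input library; frequency after pTyr selection over input frequency; kinase dosed for 20-30% of maximal phosphorylation in three min.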

Sequence | SH2 binding enrichment [1] | SH2 binding enrichment [2] | SH2 binding enrichment [3] | phosphorylation enrichment [4] | phosphorylation enrichment [5] | phosphorylation enrichment [6] | phosphorylation enrichment [7] | phosphorylation enrichment [8] | phosphorylation enrichment [9] | phosphorylation enrichment [10] | phosphorylation enrichment [11] | phosphorylation enrichment [12] | phosphorylation enrichment [13] | phosphorylation enrichment [14] | phosphorylation enrichment [15] | phosphorylation enrichment [16]
MDDDQYALLTT [EFCAB6_Y675] | 0.544 | 0.695 | 0.841 | 0.677 | 0.632 | 0.785 | 0.736 | 1.26 | 0.64 | 0.996 | 1.18 | 1.1 | 0.956 | 0.732 | 0.64 | 1.39
VPLLEYFWDIF [CDAN1_Y712_R714W_YF] | 2.12 | 1.68 | 1.8 | 0.455 | 0.413 | 0.469 | 0.439 | 1.16 | 0.449 | 1.12 | 2.73 | 3.61 | 0.432 | 0.666 | 0.411 | 1.02
YTGNTYRVGDT [FN1_Y106] | 0.55 | 0.406 | 0.766 | 0.448 | 0.389 | 0.424 | 0.415 | 0.775 | 0.441 | 0.563 | 0.534 | 0.439 | 0.486 | 0.569 | 0.467 | 0.666
GGGGGYNCSSG [FUS_Y232_R234C] | 0.613 | 0.574 | 0.928 | 0.402 | 0.342 | 0.432 | 0.415 | 0.666 | 0.41 | 0.614 | 0.626 | 0.378 | 0.411 | 0.534 | 0.355 | 0.563
IMWDSYTTNKV [GNB3_Y85_V81M] | 0.675 | 0.66 | 0.749 | 0.544 | 0.305 | 0.437 | 0.392 | 0.885 | 0.33 | 0.91 | 0.64 | 0.451 | 0.421 | 0.553 | 0.369 | 0.945
VDGSVYELHPS [GCK_Y413_K414E] | 1.01 | 0.743 | 0.944 | 2.35 | 3.82 | 3.42 | 16 | 1.09 | 12.1 | 0.981 | 0.676 | 0.597 | 8.06 | 0.94 | 9.02 | 1.56
SQDSAYHSGIQ [FLG_Y3940] | 0.544 | 0.529 | 0.899 | 0.532 | 0.489 | 0.366 | 0.404 | 0.614 | 0.421 | 0.492 | 0.512 | 0.4 | 0.678 | 0.506 | 0.386 | 0.557
IGEVVYQRAAM [GRIN2A_Y502_V506A] | 0.883 | 0.53 | 0.84 | 0.442 | 0.441 | 0.425 | 0.78 | 0.824 | 0.9 | 0.595 | 0.394 | 0.438 | 1.66 | 5.89 | 1.27 | 0.841
VGEGPYLLSDL [ABCC12_Y7_I9L] | 0.547 | 0.361 | 0.641 | 0.461 | 0.385 | 0.559 | 0.508 | 0.941 | 0.565 | 0.83 | 0.605 | 0.484 | 0.432 | 0.586 | 0.71 | 0.839
NACGLYFKLHN [GATA2_Y376_YF] | 0.686 | 0.449 | 0.899 | 0.552 | 0.466 | 0.496 | 0.425 | 0.979 | 0.427 | 1.21 | 0.722 | 0.437 | 0.491 | 0.784 | 0.358 | 1.26
FGLQAYTEVKT [ALDH2_Y502_YF] | 2.52 | 7.17 | 0.869 | 0.715 | 0.452 | 0.609 | 0.608 | 1.34 | 0.498 | 1.13 | 0.783 | 0.584 | 0.657 | 0.727 | 0.414 | 1.03
QEGPEYWDQET [HLA-A_Y83] | 0.354 | 0.588 | 0.819 | 0.809 | 0.66 | 0.533 | 0.546 | 1.79 | 0.739 | 1.94 | 1.16 | 0.816 | 0.73 | 0.907 | 0.825 | 1.82
EKMWTYMPSAE [GRIA4_Y695_R697P] | 0.444 | 0.524 | 0.92 | 0.504 | 0.363 | 0.474 | 0.396 | 0.841 | 0.377 | 0.652 | 0.623 | 0.448 | 0.509 | 0.538 | 0.329 | 0.768
RREWYYEVIIA [BACE1_Y260_V265A] | 0.55 | 0.415 | 0.673 | 0.539 | 1.52 | 0.442 | 0.764 | 0.733 | 0.462 | 1.26 | 2.9 | 4.47 | 0.513 | 0.542 | 0.926 | 1.3
SLRAHYDTPRS [DOK7_Y405] | 0.914 | 3.32 | 0.712 | 0.392 | 0.319 | 0.351 | 0.367 | 0.448 | 0.349 | 0.402 | 0.351 | 0.343 | 0.328 | 0.412 | 0.298 | 0.428
ARLEFYENEKK [IRS1_Y47_YF] | 1.19 | 2.68 | 1.18 | 0.623 | 0.462 | 0.597 | 0.406 | 0.995 | 0.439 | 0.887 | 0.604 | 0.58 | 0.451 | 0.492 | 0.411 | 1.1
LSCLAYSGKDA [FXN_Y205_S202C] | 0.626 | 0.537 | 0.719 | 0.844 | 0.558 | 0.643 | 0.525 | 1.44 | 0.52 | 1.24 | 0.976 | 0.495 | 0.527 | 1.15 | 0.665 | 1.23
LTFDEYRNISQ [ANXA3_Y216] | 0.585 | 0.49 | 2.68 | 1.01 | 0.498 | 0.782 | 1.08 | 1.93 | 0.854 | 1.58 | 1.49 | 1.23 | 1.08 | 1.13 | 0.643 | 1.82
SIIKDYFHRGA [GATM_Y203] | 0.607 | 0.537 | 0.87 | 0.376 | 0.397 | 0.438 | 0.433 | 0.679 | 0.407 | 0.764 | 0.455 | 0.48 | 0.43 | 0.525 | 0.477 | 0.579

The next lines start with results.

SH2 binding enrichment [1] | SH2 binding enrichment [2] | SH2 binding enrichment [3] | Sequence | phosphorylation enrichment [4] | phosphorylation enrichment [5] | phosphorylation enrichment [6] | phosphorylation enrichment [7] | phosphorylation enrichment [8] | phosphorylation enrichment [9] | phosphorylation enrichment [10] | phosphorylation enrichment [11] | phosphorylation enrichment [12] | phosphorylation enrichment [13] | phosphorylation enrichment [14] | phosphorylation enrichment [15] | phosphorylation enrichment [16]
0.672 | 0.567 | 0.989 | CEHRGSLFLAI [TEK_Y897_Y897S_YF] | 0.55 | 0.422 | 0.564 | 0.533 | 1.16 | 0.427 | 1.04 | 0.725 | 0.501 | 0.457 | 0.944 | 0.457 | 1.03
1.47 | 2.17 | 0.992 | PKFHSYVSLPF [PLXNA2_Y293] | 1.38 | 1.22 | 1.01 | 0.713 | 1.66 | 0.903 | 1.59 | 1.82 | 1.86 | 1.14 | 0.801 | 0.734 | 1.35
0.653 | 0.564 | 0.811 | KVVQEYERVII [NPHS2_Y131] | 3.17 | 0.435 | 2.79 | 3.84 | 0.956 | 0.485 | 0.801 | 0.719 | 0.633 | 0.563 | 0.757 | 0.457 | 1.09
0.513 | 0.403 | 0.852 | DKEKWYPLGTS [PIK3C2G_Y1438_N1442T] | 0.544 | 0.458 | 0.496 | 0.55 | 0.931 | 0.505 | 0.765 | 0.642 | 0.409 | 0.44 | 0.591 | 0.486 | 0.821
0.906 | 0.691 | 0.896 | YSQNIYIQNRN [PKP2_Y631] | 0.424 | 1.43 | 0.569 | 0.489 | 0.706 | 0.443 | 0.59 | 0.483 | 0.482 | 0.633 | 0.6 | 0.528 | 0.804
0.778 | 0.45 | 0.909 | VGGRIYIDDGL [PKLR_Y218] | 0.493 | 0.383 | 0.431 | 0.681 | 0.885 | 0.459 | 0.91 | 0.539 | 0.575 | 0.463 | 0.727 | 0.493 | 0.742
0.939 | 0.663 | 0.874 | TILEHYRRTHC [MYBPC3_Y1119_V1115I] | 0.465 | 0.59 | 0.575 | 0.439 | 1.08 | 0.378 | 0.781 | 0.619 | 0.511 | 0.524 | 0.609 | 0.505 | 0.809
0.55 | 0.453 | 0.738 | EWKNNYPRLRE [OPA1_Y582] | 0.337 | 0.404 | 0.442 | 0.4 | 0.607 | 0.422 | 0.564 | 0.483 | 0.383 | 0.441 | 0.797 | 0.371 | 0.563
0.755 | 0.544 | 0.927 | VFAPDYIAGVS [NOB1_Y366] | 0.657 | 0.547 | 0.646 | 0.647 | 1.38 | 0.585 | 0.934 | 0.807 | 0.537 | 0.651 | 0.844 | 0.55 | 1.05
1.99 | 1.23 | 1.67 | LMVFEYMRHGD [NTRK1_Y591] | 0.646 | 0.426 | 0.847 | 0.614 | 1.08 | 0.604 | 1 | 0.756 | 0.5 | 0.931 | 0.457 | 0.34 | 0.845
0.689 | 0.51 | 0.89 | ASNNPYFRDQA [RPGRIP1_Y846] | 0.396 | 0.416 | 0.357 | 0.434 | 0.694 | 0.5 | 0.547 | 0.656 | 0.443 | 0.449 | 0.537 | 0.512 | 0.605
0.764 | 0.619 | 0.838 | ATARPYSPYII [LRP5_Y1528_R1529S] | 0.473 | 0.375 | 0.192 | 6.92 | 0.731 | 0.934 | 0.668 | 0.727 | 0.351 | 0.456 | 0.544 | 1.02 | 0.646
0.601 | 0.385 | 0.676 | MGSFNYLGFAW [SPTLC2_Y178_R183W_YF] | 2.34 | 0.681 | 1.09 | 0.559 | 1.16 | 0.547 | 1.85 | 1.03 | 0.971 | 0.588 | 0.768 | 0.72 | 1.17
0.687 | 0.444 | 0.787 | GFRVCYTPDSR [PTPRF_Y451_Y450C_YF] | 0.513 | 0.419 | 0.512 | 0.548 | 1.34 | 0.397 | 1.01 | 0.691 | 0.472 | 0.507 | 0.777 | 0.451 | 1.26
